The values that follow come from publication PMC3017675 (Journal of molecular biology, 2010).

What is called stoichiometry N is the number of molecules, sites or subunits per partner or assembly.

The target in experiment [1] is full-length Mycobacterium tuberculosis GroEL1 (M. tuberculosis H37Rv) (UniProt P9WPE9). As to the kind of experiment: SEC.
Experiment [2] has as its target full-length M. tuberculosis GroEL2 (M. tuberculosis, UniProt P9WPE7 1-540). As to the kind of experiment: peptide or protein array.

Chain of full-length M. tuberculosis GroEL2 (P9WPE7 whole entry): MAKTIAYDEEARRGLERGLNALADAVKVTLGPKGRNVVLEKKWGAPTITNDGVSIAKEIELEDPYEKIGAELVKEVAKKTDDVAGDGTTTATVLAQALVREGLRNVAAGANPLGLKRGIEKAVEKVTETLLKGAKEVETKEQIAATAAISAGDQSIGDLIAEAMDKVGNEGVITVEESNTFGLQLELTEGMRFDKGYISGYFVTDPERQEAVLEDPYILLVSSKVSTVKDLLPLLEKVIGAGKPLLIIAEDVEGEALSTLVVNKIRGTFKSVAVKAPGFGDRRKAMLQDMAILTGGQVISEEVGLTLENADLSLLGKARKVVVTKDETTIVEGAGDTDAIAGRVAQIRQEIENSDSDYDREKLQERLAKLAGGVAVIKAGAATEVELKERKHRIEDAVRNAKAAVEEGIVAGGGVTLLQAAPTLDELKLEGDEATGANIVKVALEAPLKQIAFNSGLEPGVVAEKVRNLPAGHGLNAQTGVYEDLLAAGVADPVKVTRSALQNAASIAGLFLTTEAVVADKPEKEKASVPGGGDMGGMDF

On to “full-length Mycobacterium tuberculosis GroEL1 (from UniProt P9WPE9 1-539) (natural protein)”, for which the stoichiometry N in experiment [1] turned out to be 2.

B1: KasA peptides Group G (spots F01-F04) (peptide)
peptide: RGAKPLARLLGAGITSDA
On to B1, for which the binding result in experiment [2] is given as “binds”.

B2: KasA peptides Group H (spots F12-F17) (peptide)
peptide: APAADGVRAGRAMTRSLELAGL
Regarding B2, in experiment [2], the binding result was “binds”.

B3: KasA peptides Group A (spots A05-A08) (peptide)
peptide: GGFPSVVVTAVTATTSIS
In the case of B3, the binding result in experiment [2] was “binds”.

B4: KasA peptides Group I (spots G20-G24) (peptide)
peptide: AVGALESVLTVLTLRDGVIP
Turning to B4, the binding result in experiment [2] was “binds”.
